# Results taken from the RNAGym collection of RNA variant scans (doi:10.1101/gr.219683.116).
# B1: mRNA-splicing (parent)
# chain: AGUUGCUGCUGGGAGCUCCAGCACAGUGAAAUGGACAGAAGGGCAGAGCAA
# Variants of: B1
# Experiment: exon inclusion enrichment index; higher = more inclusion; WT1 exon 5 minigene, HEK293
row,Variant,exon inclusion enrichment index
1,G5A C6G U7G G8C C9G,0.0513
2,G5A C6G U7G G8C C9U,0.00108
3,G5A C6G U7G G8C C9A,0.0086
4,G5A C6U U7A G8U C9A A35G,0.017
5,G5A C6U U7A G8U C9A A35U,0.00487
6,G5A C6U U7A G8U C9A A35C,0.00811
7,G5A C6U U7A G8U C9A A14C G15U,0.0114
8,G5A C6U U7A G8U C9A A14C G15A,0.00652
9,G5A C6U U7A G8U C9A A14C G15C,0.0124
10,G5A C6G U7G C9A U17G C18U,0.00166
11,G5A C6G U7G C9A U17G C18G,0.00151
12,G5A C6G U7G C9A U17G C18A,0.00242
13,G5A C6U U7A G8U C9A A35C C36A,0.0286
14,G5A C6U U7A G8U C9A A35C C36U,0.00346
15,G5A C6U U7A G8U C9A A35C C36G,0.0383
16,G5A C6U U7A G8C C9A,0.286
17,G5A C6U U7A G8C C9U,0.218
18,G5A C6U U7A G8C C9G,0.736
19,G5A C6G U7G C9A U27G G28A,0.00077
20,G5A C6G U7G C9A U27G G28C,0.00084
21,G5A C6G U7G C9A U27G G28U,0.0007

row,Variant,exon inclusion enrichment index
1,G5A C6G U7G C9A G43U C44A,0.00143
2,G5A C6G U7G C9A G43U C44G,0.000892
3,G5A C6G U7G C9A G43U C44U,0.00214
4,G5A C6U U7A G8U C9A A47U G48A,0.0443
5,G5A C6U U7A G8U C9A A47U G48C,0.0371
6,G5A C6U U7A G8U C9A A47U G48U,0.0462
7,G5A C6U U7A G8U C9A C16A U17C,0.0702
8,G5A C6U U7A G8U C9A C16A U17G,0.0322
9,G5A C6U U7A G8U C9A C16A U17A,0.0573
10,G5A C6U U7A G8U C9A A20U G21A,0.0106
11,G5A C6U U7A G8U C9A A20U G21C,0.0614
12,G5A C6U U7A G8U C9A A20U G21U,0.0251
13,G5A C6U G8A U10C,0.819
14,G5A C6U U7A G8U C9A A35U C36A,0.000817
15,G5A C6U U7A G8U C9A A35U C36U,0.000729
16,G5A C6U U7A G8U C9A A35U C36G,0.00319
17,G5A C6U U7A G8U C9A A40G G41U,0.0544
18,G5A C6U U7A G8U C9A A40G G41A,0.0181
19,G5A C6U U7A G8U C9A A40G G41C,0.455
20,G5A C6U U7A G8U C9A A30U A31G,0.0609
21,G5A C6U U7A G8U C9A A30U A31U,0.0488

row,Variant,exon inclusion enrichment index
1,G5A C6U U7A G8U C9A A30U A31C,0.064
2,G5A C6G U7G C9A U10G G11C,0.00673
3,G5A C6G U7G C9A U10G G11U,0.00152
4,G5A C6G U7G C9A U10G G11A,0.00349
5,G5A C6U U7A G8U C9A C19U,0.00395
6,G5A C6U U7A G8U C9A C19G,0.0674
7,G5A C6U U7A G8U C9A C19A,0.0415
8,G5A C6G U7G C9A G46A A47U,0.00359
9,G5A C6G U7G C9A G46A A47C,0.00647
10,G5A C6G U7G C9A G46A A47G,0.00174
11,G5A C6U U7A G8U C9A A23C C24A,0.0996
12,G5A C6U U7A G8U C9A A23C C24G,0.241
13,G5A C6U U7A G8U C9A A23C C24U,0.00662
14,G5A C6U U7A G8U C9A A39C A40G,0.0817
15,G5A C6U U7A G8U C9A A39C A40C,0.204
16,G5A C6U U7A G8U C9A A39C A40U,0.0208
17,G5A C6U U7A G8U C9A A37G G38A,0.0869
18,G5A C6U U7A G8U C9A A37G G38C,0.113
19,G5A C6U U7A G8U C9A A37G G38U,0.0165
20,G5A C6U U7A G8U C9A A14C,0.0601
21,G5A C6U U7A G8U C9A A14U,0.00769

row,Variant,exon inclusion enrichment index
1,G5A C6U U7A G8U C9A A14G,0.0395
2,G5A C6U U7A G8U C9A A37G,0.17
3,G5A C6U U7A G8U C9A A37C,0.285
4,G5A C6U U7A G8U C9A A37U,0.0684
5,G5A C6U U7A G8U C9A C19A A20C,0.0154
6,G5A C6U U7A G8U C9A C19A A20G,0.00271
7,G5A C6U U7A G8U C9A C19A A20U,0.0348
8,G5A C6U U7A G8C,0.696
9,G5A C6U U7A G8A,0.217
10,G5A C6U U7A G8U,0.171
11,G5A C6U U7A G8U C9A A35G C36U,0.00124
12,G5A C6U U7A G8U C9A A35G C36A,0.0117
13,G5A C6U U7A G8U C9A A35G C36G,0.00488
14,G5A C6U,0.0142
15,G5A C6U U7A G8U C9A A47G,0.0115
16,G5A C6U U7A G8U C9A A47C,0.133
17,G5A C6U U7A G8U C9A A47U,0.0348
18,G5A C6U U7A G8U C9A A29C,0.0477
19,G5A C6U U7A G8U C9A A29G,0.164
20,G5A C6U U7A G8U C9A A29U,0.0147
